Reference: US20250034549

Tests used:
[1] = molecular target: v2.1 BE-VLP gag-ABE8e fusion
[2] = molecular target: v2.2 BE-VLP gag-ABE8e fusion
[3] = molecular target: v2.4 BE-VLP gag-ABE8e fusion
[4] = molecular target: v2.3 BE-VLP gag-ABE8e fusion

B1: MMLV protease (protein)
chain: TLDDQGGQGQEPPPEPRITLKVGGQPVTFLVDTGAQHSVLTQNPGPLSDKSAWVQGATGGKRYRWTTDRKVHLATGKVTHSFLHVPDCPYPLLGRDLLTKLKAQIHFEGSGAQVMGPMGQPLQVL
fraction of cleaved ABE8e versus full-length gag-ABE8e present in purified BE-VLPs (western blot) [1]: the v2.4 linker is cleaved more efficiently than the v2.1 and v2.2 linkers, but less efficiently than the v2.3 linker | fraction of cleaved ABE8e versus full-length gag-ABE8e present in purified BE-VLPs (western blot) [2]: the v2.4 linker is cleaved more efficiently than the v2.1 and v2.2 linkers, but less efficiently than the v2.3 linker | fraction of cleaved ABE8e versus full-length gag-ABE8e present in purified BE-VLPs (western blot) [3]: the v2.4 linker is cleaved more efficiently than the v2.1 and v2.2 linkers, but less efficiently than the v2.3 linker | fraction of cleaved ABE8e versus full-length gag-ABE8e present in purified BE-VLPs (western blot) [4]: the v2.4 linker is cleaved more efficiently than the v2.1 and v2.2 linkers, but less efficiently than the v2.3 linker
